# Where a chain is given by its changes, count along the chain named.
# B1: NPB 314 scFv (scFv, V domains shown)
# VH: EVQLVQSGAEVKKPGESLKISCKGSGYTFTKYWIGWVRQMPGKGLEWMGIIYPGDSDTTYSPSFQGQVTISADKSISTAYLQWSSLKASDTAMYYCAKDNPFTGSFDIWGQGTMVTVSS
# VL: QSALTQPASMSGFPGQSITISCTGTRDDVGNYDLVSWYQQQPAKAPKLLIYEDNKRPSGVSSRFSGSKSGSTASLTISGLQTEDEADYYCCSYAGDYTYVFGTGTKVTVL
# B2: NPB 307 scFv (scFv, V domains shown)
# VH: B1 VH with P14S, S25F, T28R, K31S, T59R, Q111L
# VL: QSALTQPRSVSGSPGQSVTISCTGTSNDVGGYTYVSWYQQHPGKAPKLMIYDVSKRPSGVPDRFSGSKSGNTASLTISGLQAEDEADYYCSSYAGSYTWVFGGGTKLTVL
# B3: NPB 308 scFv (scFv, V domains shown)
# VH: B1 VH
# VL: B2 VL
# B4: NPB 302 scFv (scFv, V domains shown)
# VH: EVQLVESGAEVKKPGSSVKVSCKASGGTFSSYAISWVRQAPGQGLEWMGRIIPILGIANYAQKFQGRVTITADKSTSTAYMELSSLRSEDTAVYYCARVNPFGYYYAMDVWGQGTTVTVSS
# VL: QSVLTQPPSASGTPGQRVTISCSGSTSNIGGNSVNWYQQLPGAAPKLLIYANIQRPSGVPDRFSGSKSGTSASLAISGLQSEDEADYYCASWDDSRNGYVFGTGTKVTVL
# B5: NPB 313 scFv (scFv, V domains shown)
# VH: B4 VH with E6Q
# VL: DIQMTQSPSSVSASVGDRVTIPCRASQGISSWLAWYQQKPGKAPKLLIYAASNLQSGVPSRFSGSGSGTDFTLTISSLQPEDSATYYCQQTDSFPLTFGGGTKVEIK
# B6: NPB 303 scFv (scFv, V domains shown)
# VH: EVQLVQSGAEVKKSGESLKISCKGFGYTFTRNWIGWVRQMPGKGLEWMGIIYPGDSDTRYSPSFQGQVTISADKSISTAYLQWSSLKASDTAMYYCARDVGNGDYGLDVWGQGTTVTVSS
# VL: QSALTQPASVSGSPGQSITISCTGTSSDIGGYDFVSWYQQHPGKAPKLIIYDVTRRPSEISNRFSASKSGNTASLTISGLQAEDEADYYCSSYTSSSTPYVFGTGTKVTVL
# B7: NPB 312 scFv (scFv, V domains shown)
# VH: EVQLVQSGAEVKKPGESLKISCEGSGYRFSSYWIAWVRQKPGKGLEWMGIIYPYDSDTKYGPSFGGQVTISADKSINTAYLEWSSLKASDTAMYYCARLALIRGSIIFDYWGLGTLVTVSS
# VL: QSALTQPRSVSGSPGQSVTISCTGSRGDVGGYDFVSWYRQYPGEAPQLIIYDVSGRPSGVPDRFSGSKSGNTASLTISGLQPEDEADYYCSSYAGSEIYVFGTGTKVTVL
# B8: NPB 306 scFv (scFv, V domains shown)
# VH: B7 VH
# VL: QSVLTQPSSVSGAPGQRVTISCTGSSSNIGAGYDVHWYQHLPGTAPKLLIYGINIRPSGVPDRFSGSKSDTSASLAITALQAEDEADYYCQSYDSSLRSVVFGGGTKLTVL
# B9: NPB 309 scFv (scFv, V domains shown)
# VH: B7 VH
# VL: QSVLTQPSSVSGAPGQRVTISCTGSSSNIGADYDVHWYQLVSGAAPKLLIYGYTNRPSGVPDRFSGSKSGTSASLVIAGLQAEDEADYYCQSYDSSLSEVVFGGGTKLTVL
# B10: NPB 304 scFv (scFv, V domains shown)
# VH: EVQLLESGGGLVQPGGSLRLSCAASGLAFSDYYMSWVRLAPGKGLEWVSVISPGSGSKYYADSVKGRFTISRDNSKNTLYLQMNSLRAEDTAVYYCARYVGGMMMKRDFYYAMDVWGQGTLVTVSS
# VL: QSVLTQPPSASGTPGQRVTISCSGSSSNIGSNAVNWYQQLPGTAPKLLIYYDSHRPSEVPDRFSGSKSGTSASLAISGLRSEDEADYYCGTWDSSLSGYVFGGGTKLTVL
# B11: NPB 305 scFv (scFv, V domains shown)
# VH: B10 VH
# VL: QSVLTQPPSASGTPGQRVTISCTGSSSNIGNNDVSWYQQLPGTAPKLLIYSNNQRPSGVPDRFSGSKSGTSASLAISGLRSGDEADYYCGTWDYSLSGYVFGGGTKLTVL
# Biological target: T1, 인간 FcεRI의 α 서브유니트(FcεRIα)의 가용성 단편 (human, UniProt P12319 26-205, limits assumed)
# T1 construct: domain: 가용성 단편 (soluble fragment); also called soluble sFcεRI; sFcεRI
# T1 sequence (looked up): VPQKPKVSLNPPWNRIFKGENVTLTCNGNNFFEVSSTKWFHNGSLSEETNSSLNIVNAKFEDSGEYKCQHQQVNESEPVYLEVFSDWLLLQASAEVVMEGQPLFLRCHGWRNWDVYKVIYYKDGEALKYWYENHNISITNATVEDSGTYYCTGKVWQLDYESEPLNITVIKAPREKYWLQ
# Experiment: phage ELISA, scFv on phage, selected after panning on coated FcεRI
binder,measurement,value
B1,binding result,binds
B2,binding result,binds
B3,binding result,binds
B4,binding result,binds
B5,binding result,binds
B6,binding result,binds
B7,binding result,binds
B8,binding result,binds
B9,binding result,binds
B10,binding result,binds
B11,binding result,binds
